From patent publication US20070218064A1 (published 2007)
Substitutions are numbered along the chain they refer to.

B1: Fab MOR05046 (Fab, V domains shown)
VH: QVQLVQSGAEVKKPGESLKISCKGSGYSFSNYWIGWVRQMPGKGLEWMGIIDPVSSWTKYSPSFQGQVTISADKSISTAYLQWSSLKASDTAMYYCARWYYKPFDVWGQGTLVTVSS
VL: DIVLTQPPSVSGAPGQRVTISCTGSSSNIGSGYDVHWYQQLPGTAPKLLIYGNSKRPSGVPDRFSGSKSGTSASLAITGLQSEDEADYYCSSWTPSSVVFGGGTKLTVL
notes: H-CDR2 matured from 4649
B2: Fab MOR04649 (Fab, V domains shown)
VH: B1 VH with V54S, S55N, W57Y, K59N
VL: B1 VL
notes: HuCAL Gold Fab, lambda
B3: Fab MOR04658 (Fab, V domains shown)
VH: QVQLVESGGGLVQPGGSLRLSCAASGFTFSSFGMSWVRQAPGKGLEWVSNISSSGSSTYYADSVKGRFTISRDNSKNTLYLQMNSLRAEDTAVYYCARYWGTPYLMQFDNWGQGTLVTVSS
VL: DIALTQPASVSGSPGQSITISCTGTSSDVGGYNSVSWYQQHPGKAPKLMIYSVSSRPSGVSNRFSGSKSGNTASLTISGLQAEDEADYYCSSYDTNKPLVVFGGGTKLTVL
notes: HuCAL Gold Fab, lambda
B4: mAb MOR05063 (antibody, IgG1, V domains shown)
VH: B3 VH with Q3E
VL: DIALTQPASVSGSPGQSITISCTGTSSDVGGYNSVSWYQQHPGKAPKLMIYSVSSRPSGVSNRFSGSKSGNTASLTISGLQAEDEADYYCSDVFGGGTKLTVL
B5: mAb MOR05062 (antibody, IgG1, V domains shown)
VH: B3 VH with Q3E
VL: DIALTQPASVSGSPGQSITISCTGTSSDVGGYNSVSWYQQHPGKAPKLMIYSVSSRPSGVSNRFSGSKSGNTASLTISGLQAEDEADYYCYVFGGGTKLTVL
B6: mAb MOR05061 (antibody, IgG1, V domains shown)
VH: B3 VH with Q3E
VL: DIALTQPASVSGSPGQSITISCTGTSSDVGGYNSVSWYQQHPGKAPKLMIYSVSSRPSGVSNRFSGSKSGNTASLTISGLQAEDEADYYCSSYVFGGGTKLTVL
B7: mAb MOR05028 (antibody, IgG1, V domains shown)
VH: QVELVQSGAEVKKPGSSVKVSCKASGGTFSNYAISWVRQAPGQGLEWMGGIIPFGYAQKFQGRVTITADESTSTAYMELSSLRSEDTAVYYCARDIYAGMDVWGQGTLVTVSS
VL: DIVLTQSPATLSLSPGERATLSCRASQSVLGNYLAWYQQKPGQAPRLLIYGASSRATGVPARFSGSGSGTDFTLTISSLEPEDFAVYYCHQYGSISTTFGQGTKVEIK
B8: mAb MOR05036 (antibody, IgG1, V domains shown)
VH: QVELVQSGAEVKKPGSSVKVSCKASGGTFSSNYISWVRQAPGQGLEWMGIPFGAYAQKFQGRVTITADESTSTAYMELSSLRSEDTAVYYCARSKKGMYGGWTYPLMMFDLWGQGTLVTVSS
VL: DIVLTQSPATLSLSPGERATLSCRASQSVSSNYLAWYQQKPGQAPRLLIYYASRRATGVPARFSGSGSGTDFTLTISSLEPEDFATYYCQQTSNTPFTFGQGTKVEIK
B9: mAb MOR05033 (antibody, IgG1, V domains shown)
VH: B8 VH with P51I, F52P
VL: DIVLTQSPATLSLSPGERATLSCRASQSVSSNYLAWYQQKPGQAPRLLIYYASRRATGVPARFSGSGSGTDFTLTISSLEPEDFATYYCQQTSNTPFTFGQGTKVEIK
B10: mAb MOR05037 (antibody, IgG1, V domains shown)
VH: B8 VH
VL: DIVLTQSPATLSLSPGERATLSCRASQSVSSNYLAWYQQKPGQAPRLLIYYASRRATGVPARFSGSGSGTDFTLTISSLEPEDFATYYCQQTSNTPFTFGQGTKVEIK
B11: mAb MOR05034 (antibody, IgG1, V domains shown)
VH: B8 VH
VL: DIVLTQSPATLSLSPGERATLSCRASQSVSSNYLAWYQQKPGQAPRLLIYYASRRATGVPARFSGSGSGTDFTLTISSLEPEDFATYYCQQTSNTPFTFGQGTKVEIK
B12: mAb MOR05029 (antibody, IgG1, V domains shown)
VH: QVELVQSGAEVKKPGSSVKVSCKASGGTFSSNYISWVRQAPGQGLEWMGGIIPIFGHANYAQKFQGRVTITADESTSTAYMELSSLRSEDTAVYYCARSKKGMYGGWTYPLMMFDLWGQGTLVTVSS
VL: DIVLTQSPATLSLSPGERATLSCRASQSVSSNYLAWYQQKPGQAPRLLIYYASRRATGVPARFSGSGSGTDFTLTISSLEPEDFAYYCQQTFGQGTKVEIK
B13: mAb MOR05032 (antibody, IgG1, V domains shown)
VH: B12 VH
VL: DIVLTQSPATLSLSPGERATLSCRASQSVSSNYLAWYQQKPGQAPRLLIYYASRRATGVPARFSGSGSGTDFTLTISSLEPEDFAYYCQQNPFTFGQGTKVEIK
B14: mAb MOR05030 (antibody, IgG1, V domains shown)
VH: B12 VH
VL: DIVLTQSPATLSLSPGERATLSCRASQSVSSNYLAWYQQKPGQAPRLLIYYASRRATGVPARFSGSGSGTDFTLTISSLEPEDFAYYCQQPFTFGQGTKVEIK
B15: mAb MOR05031 (antibody, IgG1, V domains shown)
VH: B12 VH
VL: B13 VL with N91T
B16: mAb MOR05051 (antibody, IgG1, V domains shown)
VH: QVELVESGGGLVQPGGSLRLSCAASGFTFSSFGMSWVRQAPGKGLEWVSITYASVKGRFTISRDNSKNTLYLQMNSLRAEDTAVYYCARYWGTPYLMQFDNWGQGTLVTVSS
VL: B3 VL
B17: mAb MOR05039 (antibody, IgG1, V domains shown)
VH: QVELVESGGGLVQPGGSLRLSCAASGFTFSSFGMSWVRQAPGKGLEWVSNITYYASVKGRFTISRDNSKNTLYLQMNSLRAEDTAVYYCARYWGTPYLMQFDNWGQGTLVTVSS
VL: B3 VL
B18: mAb MOR05056 (antibody, IgG1, V domains shown)
VH: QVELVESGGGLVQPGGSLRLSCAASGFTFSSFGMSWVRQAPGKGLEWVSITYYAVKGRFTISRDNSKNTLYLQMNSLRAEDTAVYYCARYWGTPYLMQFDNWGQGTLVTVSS
VL: B3 VL
B19: mAb MOR05055 (antibody, IgG1, V domains shown)
VH: B17 VH with T52G, Y53T
VL: B3 VL

Each binder was assayed against T1, recombinant human IL-23 (hrIL-23), produced at Centocor (human, UniProt P29460 23-328) (assay: IL-23/IL-23R competition assay).
T1 construct: p19-p40 heterodimer; also called rhIL-23; hIL-23
T1 sequence 1: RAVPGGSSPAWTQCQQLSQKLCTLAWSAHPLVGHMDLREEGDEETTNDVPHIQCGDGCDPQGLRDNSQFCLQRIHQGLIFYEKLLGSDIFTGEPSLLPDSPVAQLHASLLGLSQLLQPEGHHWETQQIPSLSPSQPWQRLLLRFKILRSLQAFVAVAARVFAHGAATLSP
T1 sequence 2: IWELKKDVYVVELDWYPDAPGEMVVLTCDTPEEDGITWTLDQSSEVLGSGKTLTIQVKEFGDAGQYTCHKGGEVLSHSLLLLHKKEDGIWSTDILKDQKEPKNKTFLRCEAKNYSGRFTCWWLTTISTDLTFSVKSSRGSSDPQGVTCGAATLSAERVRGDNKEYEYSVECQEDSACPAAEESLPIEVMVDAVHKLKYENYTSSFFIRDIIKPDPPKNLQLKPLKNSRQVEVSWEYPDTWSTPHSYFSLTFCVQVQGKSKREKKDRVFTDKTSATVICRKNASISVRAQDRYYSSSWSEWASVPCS

Row | Binder | IC50
1 | B1 | 0.03 nM

The binders below were run against T2, IL-12 (R&D) (UniProt P29459 23-219; P29460 23-328) (assay: ELISA, antigen in solution to immobilized Fab).
T2 construct: bought from R&D Systems; also called R&D IL-12
T2 sequence (looked up) 1: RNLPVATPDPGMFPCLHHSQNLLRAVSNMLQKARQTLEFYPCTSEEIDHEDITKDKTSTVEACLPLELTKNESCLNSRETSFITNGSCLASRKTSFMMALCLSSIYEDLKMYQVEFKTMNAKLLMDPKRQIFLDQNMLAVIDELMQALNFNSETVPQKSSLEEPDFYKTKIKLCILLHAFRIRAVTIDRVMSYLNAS
T2 sequence (looked up) 2: T1 sequence 2

Row | Binder | binding result
2 | B2 | no binding
3 | B3 | no binding

Each binder was assayed against T3, recombinant human IL-12 (hrIL-12), produced at Centocor (human, UniProt P29459 23-219; P29460 23-328) (assay: ELISA, antigen in solution to immobilized Fab).
T3 construct: p35-p40 heterodimer; also called hIL-12; IL-12 CNTO
T3 sequence (looked up) 1: T2 sequence (looked up) 1
T3 sequence (looked up) 2: T1 sequence 2

Row | Binder | binding result
4 | B2 | no binding
5 | B3 | no binding

What follows are binders tested against T1, recombinant human IL-23 (hrIL-23), … (assay: cell-based or functional assay).

Row | Binder | Inhibition of IL-17 production, IC50
6 | B4 | 0.198 µg/mL
7 | B5 | 0.199 µg/mL
8 | B6 | 0.309 µg/mL
9 | B7 | 0.104 µg/mL
10 | B8 | 0.17 µg/mL
11 | B9 | 0.283 µg/mL
12 | B10 | 0.336 µg/mL
13 | B11 | 0.185 µg/mL
14 | B12 | 0.0491 µg/mL
15 | B13 | 0.172 µg/mL
16 | B14 | 0.0646 µg/mL
17 | B15 | 0.215 µg/mL
18 | B16 | 0.0663 µg/mL
19 | B17 | 0.161 µg/mL
20 | B18 | 0.092 µg/mL
21 | B19 | 0.0916 µg/mL
